Assay results reported in patent US20260167721A1.

Columns and labels:
[1] = biological target: Jurkat TCRb knockout cells; test: flow cytometry, Jurkat KO (TCRb knockout) cells, negative control, 10 ug/mL
[2] = biological target: Jurkat TCRb knockout cells; test: flow cytometry on Jurkat KO (TCRb knockout) cells, negative control, antibody at 10 ug/ml
[3] = biological target: Jurkat TCRb knockout cells; test: flow cytometry, Jurkat KO (TCRb knockout) cells, negative control, 1 ug/mL
[4] = biological target: Jurkat TCRb knockout cells; test: flow cytometry on Jurkat KO (TCRb knockout) cells, negative control, antibody at 1 ug/ml

gMFI [1]: 1830 gMFI
flow cytometry signal [2]: 2820
gMFI [3]: 1860 gMFI
flow cytometry signal [4]: 3000
B1: Gemtuzumab (antibody, V domains shown)
VH: EVQLVQSGAEVKKPGSSVKVSCKASGYTITDSNIHWVRQAPGQSLEWIGYIYPYNGGTDYNQKFKNRATLTVDNPTNTAYMELSSLRSEDTAFYYCVNGNPWLAYWGQGTLVTVSS
VL: DIQLTQSPSTLSASVGDRVTITCRASESLDNYGIRFLTWFQQKPGKAPKLLMYAASNQGSGVPSRFSGSGSGTEFTLTISSLQPDDFATYYCQQTKEVPWSFGQGTKVEVKR
